The source of these data is patent EP4349858A1 (CentricsBio, Inc., dated 2024).

Changes are numbered by the printed parent chain.

The target in experiment [1] is T1, CD300c antigen (11832-H08H, Sino Biological) (UniProt Q08708 21-183).
T1 construct: Bought recombinant antigen coated on ELISA plates; the same entry is used for it
T1 sequence (looked up): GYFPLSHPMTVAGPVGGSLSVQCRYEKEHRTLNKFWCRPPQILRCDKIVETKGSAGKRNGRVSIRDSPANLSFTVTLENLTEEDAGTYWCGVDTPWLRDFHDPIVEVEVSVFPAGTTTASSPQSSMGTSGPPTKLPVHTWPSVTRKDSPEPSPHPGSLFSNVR
As to the kind of experiment: binding ELISA, CD300c antigen coated. (In general: In an ELISA, binding on a coated surface is turned into a signal by an enzyme label.)

A further experiment concerns the target T2, mouse CD300c antigen (mouse).
T2 sequence (A2A7V7 whole entry, looked up): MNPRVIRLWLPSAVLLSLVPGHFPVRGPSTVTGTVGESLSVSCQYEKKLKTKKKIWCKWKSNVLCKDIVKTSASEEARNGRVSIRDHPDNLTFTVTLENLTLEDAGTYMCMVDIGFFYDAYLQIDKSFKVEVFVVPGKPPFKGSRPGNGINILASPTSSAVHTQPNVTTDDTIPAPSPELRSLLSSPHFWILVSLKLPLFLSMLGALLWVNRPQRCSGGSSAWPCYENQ
The experiment can be described thus: cell-based or functional assay.

The target of experiment [2] is T3, CD300a antigen (12449-H08H, Sino Biological) (UniProt Q9UGN4 18-180).
T3 construct: Bought recombinant antigen
T3 sequence (looked up): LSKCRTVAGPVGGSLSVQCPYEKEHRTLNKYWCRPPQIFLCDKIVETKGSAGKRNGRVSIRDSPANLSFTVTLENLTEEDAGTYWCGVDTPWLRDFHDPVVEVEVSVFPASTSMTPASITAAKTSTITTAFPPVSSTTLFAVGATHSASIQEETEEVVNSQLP
The experiment can be described thus: binding ELISA, antigen coated on plate.

A word on the EC50: it is the concentration that produces a half-maximal response.

B1: anti-CD300c monoclonal antibody CL5 (antibody, V domains shown)
VH: RVQLLESGGGLVQPGGSLRLSCAASGFTFSSYAMHWVRQAPGKGLEWVSSISGGGYGTYYADSVKGRFTISRDNSKNTLYLQMNSLRAEDTAVYYCARSTVWAFDIWGQGTLVTVSS
VL: QSVLTQPPSASGTPGQRVTISCSGNNIGSKSVHWYQQLPGTAPKLLIYDVSKRPSERPDRFSGSKSGTSASLAISDLRSEDEADYYCQSFDSSGTWIFGGGTKLTVL
notes: expressed as heavy and light chains in 293T cells, protein A purified
With B1, the 50% effective concentration (EC50) in experiment [1] was not above 0.2 µg/mL.

B2: anti-CD300c monoclonal antibody CL4 (antibody, V domains shown)
VH: RVQLLESGGGLVQPGGSLRLSCAASGFTFGSNYMSWVRQAPGKGLEWVSTISGSGTSTYYADSLKGRFTISRDNSKNTLYLQMNSLRAEDTAVYYCARGMWGMDVWGQGTLVTVSS
VL: QSVLTQPPSASGTPGQRVTISCTGKHRHTVNWYQLLPGTAPKLLIYLDSERPSGVPDRFSGSKSGTSASLAISGLRSEDEADYYCQSYDSSSVVFGGGTKLTVL
notes: as for B1
Consider B2, for which the EC50 in experiment [1] is not above 0.2 µg/mL.

B3: anti-CD300c monoclonal antibody SK14 (antibody, V domains shown)
VH: EVQLLESGGGLVQPGGSLRLSCAASGFTFSNFAIAWVRQAPGKGLEWVSAISGRGTSTYYADSVKGRFTISRDNSKNTLYLQMNSLRAEDTAVYYCARGVSGFDSWGQGTLVTVSS
VL: EIVLTQSPGTLSLSPGERATLSCRASQSISSHLAWYQQKPGQAPRLLIYDTSNRATGIPDRFSGSGSGTDFTLTISRLEPEDFAVYYCQQSYSTPFTFGQGTKVEIK
notes: as for B1
B3: the concentration for a half-maximal effect (EC50) in experiment [1] is not above 0.2 µg/mL.

B4: anti-CD300c monoclonal antibody CL7 (antibody, V domains shown)
VH: EVQLLESGGGLVQPGGSLRLSCAASGFTFSRYAMSWVRQAPGKGLEWVSAISGSGGSTYYADSVKGRFTISRDNSKNTLYLQMNSLRAEDTAVYYCARSSQGIFDIWGQGTLVTVSS
VL: QSVLTQPPSASGTPGQRVTISCSGNNIGTRRVHWYQQLPDTAPKLLIYSKNNRPSGVPDRFSGSKSGTSASLAISGLRSEDEADYYCAAWDDSLSGPVFGGGTKLTVL
notes: as for B1
For B4, in the experiment with mouse CD300c antigen, the “cancer cell proliferation inhibitory effect, CT26 mouse colorectal cancer cell line, CCK-8, 10 ug/mL antibody, 5 days” value was 66%. For the same molecule, the binding result in experiment [2] is on record as “no binding”. Further, in experiment [1], the EC50 is not above 0.2 µg/mL.

B5: anti-CD300c monoclonal antibody CL9 (antibody, V domains shown)
VH: B4 VH with R31S, A33Y, M34W, S99I, S100D, Q101V, G102Y, I103G
VL: QSVLTQPPSASGTPGQRVTISCSGSTSNIGTNYVYWYQQLPGTAPKLLIYDNNNRPSGVPDRFSGSKSGTSASLAISGLRSEDEADYYCQTWDSSTDVVFGGGTKLTVL
notes: as for B1
Regarding B5, in experiment [1], the concentration giving a half-maximal response (EC50) is not above 0.2 µg/mL.

B6: anti-CD300c monoclonal antibody SL18 (antibody, V domains shown)
VH: RVQLLESGGGLVQPGGSLRLSCAASGFTFSDYHMHWVRQAPGKGLEWVSTISSSGGYTYYAESVKSRFTISRDNSKNTLYLQMNSLRAEDTAVYYCARSIRLPLDYWGQGTLVTVSS
VL: QSVLTQPPSASGTPGQRVTISCSGNNIGSKGVHWYQQLPGTAPKLLIYEDSKRPSGVRDRFSGSKSGTSASLAISGLRSEDEADYYCQSYDSTKGVVFGGGTKLTVL
notes: as for B1
As for B6, the “cancer cell proliferation inhibitory effect, CT26 mouse colorectal cancer cell line, CCK-8, 10 ug/mL antibody, 5 days” value in the experiment with mouse CD300c antigen is 38%. This molecule had an EC50 in experiment [1] not above 0.2 µg/mL.

B7: anti-CD300c monoclonal antibody SK17 (antibody, V domains shown)
VH: EVQLLESGGGLVQPGGSLRLSCAASGFTFSSYYWSWVRQAPGKGLEWVSTITGSGGSTDYANSVKGRFTISRDNSKNTLYLQMNSLRAEDTAVYYCATGGGIFDYWGQGTLVTVSS
VL: EIVLTQSPGTLSLSPGERATLSCQASQTISNYLNWYQQKPGQAPRLLIYDASNRATGIPDRFSGSGSGTDFTLTISRLEPEDFAVYYCQQYNSYPPSFGQGTKVEIK
notes: as for B1
In experiment [1], B7 yielded a 50% effective concentration (EC50) not above 0.2 µg/mL.

B8: anti-CD300c monoclonal antibody SK13 (antibody, V domains shown)
VH: RVQLLESGGGLVQPGGSLRLSCAASGFTFSDYAMSWVRQAPGKGLEWVSSISSSSSYIYYTDSVKGRFTISRDNSKNTLYLQMNSLRAEDTAVYYCARGGYGFDYWGQGTLVTVSS
VL: EIVLTQSPGTLSLSPGERATLSCRASQSISSYLNWYQQKPGQAPRLLIYSASSRPQGIPDRFSGSGSGTDFTLTISRLEPEDFAVYYCQQYDDLPFTFGQGTKVEIK
notes: as for B1
For the molecule B8, in experiment [1], the EC50 was not above 0.2 µg/mL.

B9: anti-CD300c monoclonal antibody SK12 (antibody, V domains shown)
VH: RVQLLESGGGLVQPGGSLRLSCAASGFTFSSYAMHWVRQAPGKGLEWVSAISGSGGDTYHADSVKGRFTISRDNSKNTLYLQMNSLRAEDTAVYYCTRGLSGFDYWGQGTLVTVSS
VL: EIVLTQSPGTLSLSPGERATLSCRASQSISSYLNWYQQKPGQAPRLLIYDASNRAPGIPDRFSGSGSGTDFTLTISRLEPEDFAVYYCQQSYSIPITFGQGTKVEIKF
notes: as for B1
B9 yielded an EC50 in experiment [1] not above 0.2 µg/mL.

B10: anti-CD300c monoclonal antibody CL6 (antibody, V domains shown)
VH: EVQLLESGGGLVQPGGSLRLSCAASGFTFSSYGMHWVRQAPGKGLEWVSAISGSGGSTYYADSVKGRFTISRDNSKNTLYLQMNSLRAEDTAVYYCAVSGAGRGFFDYWGQGTLVTVSS
VL: QSVLTQPPSASGTPGQRVTISCSGSSSNIGSNYVYWYQQLPGTAPKLLIYEDNKRPSGVPDRFSGSKSGTSASLAISGLRSEDEADYYCSSYTSSSTVIFGGGTKLTVL
notes: as for B1
The molecule B10 returned an EC50 in experiment [1] not above 0.2 µg/mL.

B11: anti-CD300c monoclonal antibody CK1 (antibody, V domains shown)
VH: EVQLLESGGGLVQPGGSLRLSCAASGFTFSRYAMTWVRQAPGKGLEWVSSMSGTGGTTYYADSVKGRFTISRDNSKNTLYLQMNSLRAEDTAVYYCARGAYGFDHWGQGTLVTVSS
VL: EIVLTQSPGTLSLSPGERATLSCRASQSIGNYLNWYQQKPGQAPRLLIYDASNLETGIPDRFSGSGSGTDFTLTISRLEPEDFAVYYCQQSSAIPYTFGQGTKVEIK
notes: Selected as scFv phage clone (kappa library); expressed from separate heavy and light chain vectors in 293T cells, purified on protein A
As for B11, in experiment [1], the EC50 is not above 0.2 µg/mL.

B12: anti-CD300c monoclonal antibody CL10 (antibody, V domains shown)
VH: EVQLLESGGGLVQPGGSLRLSCAASGFTFSSYGMHWVRQAPGKGLEWVSAISGSGGSTYYADSVKGRFTISRDNSKNTLYLQMNSLRAEDTAVYYCASGYGLMDVWGQGTLVTVSS
VL: QSVLTQPPSASGTPGQRVTISCTRSSGIIASNYVQWYQQLPGTAPKLLIYRNNQRPSGVPDRFSGSKSGTSASLAISGLRSEDEADYYCSSYAGNNNLVFGGGTKLTVL
notes: as for B1
Take B12: in the experiment with mouse CD300c antigen, the “cancer cell proliferation inhibitory effect, CT26 mouse colorectal cancer cell line, CCK-8, 10 ug/mL antibody, 5 days” value was found to be 15%. The EC50 in experiment [1] is not above 0.2 µg/mL.

B13: anti-CD300c monoclonal antibody SK11 (antibody, V domains shown)
VH: B9 VH with S31T, A33G, D57S, H60Y, T97A, F103L
VL: B3 VL with A25S, S28G, S30T, S31N, H32Y, T51A, F96L
notes: as for B1
Consider B13, for which, in experiment [1], the concentration for a half-maximal effect (EC50) is not above 0.2 µg/mL.

B14: anti-CD300c monoclonal antibody CK2 (antibody, V domains shown)
VH: B12 VH with G56T, T58I, S98R, Y100G, G101T, L102A, M103F, V105Y
VL: B3 VL with S28R, I29S, S30D, S31N, H32Y, T51A, I106T
notes: as for B1
The molecule B14 yielded an EC50 in experiment [1] not above 0.2 µg/mL.
